Biological target: ZIKV sE (strain PF13) (Zika virus, strain PF13)
Test: SEC-MALS

In the case of “ZIKV sE (strain PF13) (domain or fragment)”, the stoichiometry N was 2.
